Here are results for one variant from IntAct's records for PubMed 17891176.

B1: DNA-binding protein inhibitor ID-1 (Homo sapiens), P41134 (parent)
chain: MKVASGSTATAAAGPSCALKAGKTASGAGEVVRCLSEQSVAISRCAGGAGARLPALLDEQQVNVLLYDMNGCYSRLKELVPTLPQNRKVSKVEILQHVIDYIRDLQLELNSESEVGTPGGRGLPVRAPLSTLNGEISALTAEAACVPADDRILCR

In the test the parent is B1. The following applies: with psmd4_human PSMD4, P55036.
psmd4_human PSMD4, P55036, sequence (P55036 whole entry): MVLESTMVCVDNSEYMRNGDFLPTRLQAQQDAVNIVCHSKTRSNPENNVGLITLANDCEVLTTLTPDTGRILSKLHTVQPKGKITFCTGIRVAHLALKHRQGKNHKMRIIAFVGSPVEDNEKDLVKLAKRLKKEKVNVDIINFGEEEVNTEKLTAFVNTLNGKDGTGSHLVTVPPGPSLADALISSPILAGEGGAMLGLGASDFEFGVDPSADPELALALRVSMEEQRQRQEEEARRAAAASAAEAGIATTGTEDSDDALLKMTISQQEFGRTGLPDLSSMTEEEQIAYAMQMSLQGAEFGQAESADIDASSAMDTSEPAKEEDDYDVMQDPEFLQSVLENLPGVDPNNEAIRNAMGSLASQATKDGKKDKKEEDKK
For V98G, the “effect of a mutation on the interaction” value was “decreasing interaction”.
